Data as given in publication PMC7615117, “DNSN-1 recruits GINS for CMG helicase assembly during DNA replication initiation in C. elegans” (Science (New York, N.Y.), 2023).

T1: MCM-3 (C. elegans, UniProt Q9XVR7 1-812)
T1 construct: MCM-3, C. elegans; Subunit of m11, written alone for its contacts in the structure; also called MCM-3 subunit of MCM-2-7; source: S. cerevisiae, purified as part of recombinant CMG
T1 sequence: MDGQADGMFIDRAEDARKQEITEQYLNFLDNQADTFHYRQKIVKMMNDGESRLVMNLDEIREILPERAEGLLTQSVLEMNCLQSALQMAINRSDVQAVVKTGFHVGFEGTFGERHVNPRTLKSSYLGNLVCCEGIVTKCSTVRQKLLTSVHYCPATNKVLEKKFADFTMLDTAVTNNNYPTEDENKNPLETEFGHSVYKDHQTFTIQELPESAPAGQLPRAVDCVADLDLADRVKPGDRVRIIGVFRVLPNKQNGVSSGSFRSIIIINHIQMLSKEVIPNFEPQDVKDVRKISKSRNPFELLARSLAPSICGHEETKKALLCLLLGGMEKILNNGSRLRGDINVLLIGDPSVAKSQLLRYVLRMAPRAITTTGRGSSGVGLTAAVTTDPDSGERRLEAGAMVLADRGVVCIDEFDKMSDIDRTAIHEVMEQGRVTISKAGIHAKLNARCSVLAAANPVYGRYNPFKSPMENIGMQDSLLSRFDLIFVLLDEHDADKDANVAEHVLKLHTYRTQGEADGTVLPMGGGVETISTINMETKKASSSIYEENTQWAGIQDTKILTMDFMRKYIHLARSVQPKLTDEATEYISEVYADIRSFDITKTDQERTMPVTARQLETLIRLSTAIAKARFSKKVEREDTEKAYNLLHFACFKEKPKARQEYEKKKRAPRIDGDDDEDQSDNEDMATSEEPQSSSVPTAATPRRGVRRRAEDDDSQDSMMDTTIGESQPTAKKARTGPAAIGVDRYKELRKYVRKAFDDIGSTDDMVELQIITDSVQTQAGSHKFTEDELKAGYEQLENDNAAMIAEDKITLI

T2: MCM-4 (C. elegans, UniProt Q95XQ8 1-823)
T2 construct: MCM-4, C. elegans; Subunit of m11, written alone for its interfaces in the structure; source: S. cerevisiae, purified as part of recombinant CMG
T2 sequence: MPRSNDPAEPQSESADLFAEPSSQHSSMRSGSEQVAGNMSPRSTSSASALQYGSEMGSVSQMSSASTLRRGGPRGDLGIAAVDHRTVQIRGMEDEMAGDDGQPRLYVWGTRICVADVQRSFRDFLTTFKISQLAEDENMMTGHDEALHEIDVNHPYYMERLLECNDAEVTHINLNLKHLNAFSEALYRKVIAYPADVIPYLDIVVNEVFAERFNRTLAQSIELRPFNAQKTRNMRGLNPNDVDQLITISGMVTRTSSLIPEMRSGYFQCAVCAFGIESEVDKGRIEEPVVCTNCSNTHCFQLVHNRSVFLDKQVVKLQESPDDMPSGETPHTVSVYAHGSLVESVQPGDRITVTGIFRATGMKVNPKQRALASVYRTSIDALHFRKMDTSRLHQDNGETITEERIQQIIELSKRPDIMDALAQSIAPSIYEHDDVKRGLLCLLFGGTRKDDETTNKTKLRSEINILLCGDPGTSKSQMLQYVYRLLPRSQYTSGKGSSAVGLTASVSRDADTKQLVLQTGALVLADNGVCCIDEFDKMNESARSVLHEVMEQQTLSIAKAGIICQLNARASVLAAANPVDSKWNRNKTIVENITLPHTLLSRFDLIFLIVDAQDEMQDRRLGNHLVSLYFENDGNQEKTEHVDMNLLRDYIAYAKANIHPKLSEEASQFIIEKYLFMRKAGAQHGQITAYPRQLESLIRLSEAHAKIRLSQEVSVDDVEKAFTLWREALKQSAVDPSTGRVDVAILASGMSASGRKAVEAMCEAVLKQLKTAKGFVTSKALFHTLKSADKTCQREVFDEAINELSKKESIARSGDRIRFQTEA


Columns and labels:
Experiment in all cases: cryo-EM structure; CMG (125 nM) with fork DNA, AMP-PNP, TIM-1/TIPN-1 and DNSN-1 isoform c (each 1.3-fold molar excess), GraFix gradient with glutaraldehyde and BS3
[1] = target: recombinant C. elegans DNSN-1 (C. elegans)
MCM-3 = target: T1, MCM-3; details: both partners purified
MCM-4 = target: T2, MCM-4; details: both partners purified

Molecule | stoichiometry N [1] | binding result (MCM-3) | binding result (MCM-4)
recombinant C. elegans DNSN-1 (natural protein) | 2 |  | 
MCM-7 (natural protein, C. elegans, MCM-7, C. elegans; Subunit of m11, written alone for its interfaces in the structure; source: S. cerevisiae, purified as part of recombinant CMG) MKTTTYNTDWAAEKTKIRSFFDEYYVDNEDGSGKAFPYRDQVFEIARRDKQAIVVNVDHIKESDIPDALELSEAITSNTKRYEVLFKDTISDMIQDYLGDKQAPVIDALDAYMFQRLHMDRNEGAANEEVSLQDKRKKYPPQLLQRFEVYFTTDDAAHETCVRNIKATEIGHLVSMKGVVIRATEVKPCVEVMTYTCDTCAAEVYQPVKGMQFTPPVNCPNKECVEAKANGRLHMQLRGSKFVKFQELKIQELSEQVPVGSIPRTMTVHVYGEMTRKCNTGNVVHVSGVFLPIMQSGFRPTGGLVADTYLEAHYINNLDDNPTFNGVQSAELEVLRRKGDNYETLAASIAPEIFGHVDVKKCLLMALVGGNDNSSNGMKIRGCINVLMMGDPGVAKSQLLGYVNRLAPRSQYTTGRGSSGVGLTAAVMKDPVTGEMSLEGGALVLADGGICCIDEFDKMMDHDRTAIHEVMEQQTISIAKAGIMTTLNARTAIIAAANPAYGRYNPNRSIEQNVDLPAALLSRFDLILLMQDKADRENDKILAEHITYVHQHGCHPNREKKDLISLETLREYISLCKTYTPTVDPALRERIVEAYVEMRRDARYSSDPTFVSPRMILGIVRMATARAKLRLSTIVDESDVEEALRLMQFAKDSLRPEQNKIEKRMAPVDAAFAVLRELYHADNAPIAISNAIQRCARKGISEVALKKCLDQYTANGLLVMDRQNIVFAMN |  | binds | binds
